Assay results: article PMC11401910 (2024)

Experiments:
[1] = biological target: T1, tOmpA transmembrane domain (Escherichia coli, UniProt P0A910)
T1 chain: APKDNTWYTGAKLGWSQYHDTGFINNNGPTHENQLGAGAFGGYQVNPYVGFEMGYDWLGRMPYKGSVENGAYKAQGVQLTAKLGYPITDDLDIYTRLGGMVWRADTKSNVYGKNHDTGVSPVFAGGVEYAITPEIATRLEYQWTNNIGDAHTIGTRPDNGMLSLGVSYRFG

[2] = biological target: T2, OmpF (Escherichia coli, UniProt P02931)
T2 chain: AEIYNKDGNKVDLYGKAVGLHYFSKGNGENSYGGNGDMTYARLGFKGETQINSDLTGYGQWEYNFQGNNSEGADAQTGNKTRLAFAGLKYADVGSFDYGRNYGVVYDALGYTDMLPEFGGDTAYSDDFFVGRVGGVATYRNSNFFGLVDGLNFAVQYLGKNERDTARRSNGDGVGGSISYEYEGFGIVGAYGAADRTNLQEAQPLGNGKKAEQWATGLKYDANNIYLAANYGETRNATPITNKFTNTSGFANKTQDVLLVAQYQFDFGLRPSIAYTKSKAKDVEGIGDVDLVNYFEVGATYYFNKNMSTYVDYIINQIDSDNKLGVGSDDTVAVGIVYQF

[3] = biological target: T3, SurA-WT (E. coli, UniProt P0ABZ6 21-428); experiment: ITC
T3 chain: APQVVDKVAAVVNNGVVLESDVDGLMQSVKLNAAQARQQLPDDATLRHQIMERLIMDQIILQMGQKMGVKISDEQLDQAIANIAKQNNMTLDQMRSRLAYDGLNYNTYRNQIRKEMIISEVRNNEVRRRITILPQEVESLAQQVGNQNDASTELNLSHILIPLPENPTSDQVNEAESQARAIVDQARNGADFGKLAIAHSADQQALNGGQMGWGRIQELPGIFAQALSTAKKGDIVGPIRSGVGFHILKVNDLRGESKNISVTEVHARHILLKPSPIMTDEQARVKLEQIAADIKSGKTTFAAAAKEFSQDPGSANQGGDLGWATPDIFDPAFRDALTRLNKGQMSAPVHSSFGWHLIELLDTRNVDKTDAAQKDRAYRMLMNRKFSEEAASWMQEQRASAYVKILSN

[4] = biological target: SurA-core (E. coli, UniProt P0ABZ6 21-428, deleting codons for residues 172–389); experiment: MST; apparent Kd, Hill fit, 0.8 M urea
[5] = biological target: T3, SurA-WT; experiment: MST; apparent Kd, Hill fit, 0.8 M urea

B1: SurA (protein)
chain: T3 chain
- Kd [1]: 3.7 µM
- Ki [2]: 5.2 µM

B2: WEYIPNV peptide (peptide)
peptide: WEYIPNV
- Kd [3]: 5.4 µM

B3: Cys-OmpX labelled with Alexa Fluor 488 (natural protein)
chain: MGSCATSTVTGGYAQSDAQGQMNKMGGFNLKYRYEEDNSPLGVIGSFTYTEKSRTASSGDYNKNQYYGITAGPAYRINDWASIYGVVGVGYGKFQTTEYPTYKHDTSDYGFSYGAGLQFNPMENVALDFSYEQSRIRSVDVGTWIAGVGYRF
modifications: Alexa Fluor 488 on the N-terminal Cys
- Kd [4]: 5.1 µM
- Kd [5]: 1.3 µM
